The supplement of paper PMC7877785
± gives the uncertainty stated by the source.

Assay: self-splicing fitness, log relative to wild type (ln ratio); higher = more splicing; Tetrahymena group I intron in knt gene, E. coli kanamycin selection, DiMSum; sequences stand for … in CUCUCU…GGAGGGAAAAGUUAUCAGGCAUGCACCUGGUAGCUAGUCUUUAAACCAAUAGAUUGCAUCGGUUUAAAAGGCAAGACCGUCAAAUUGCGGGAAAGGGGUCAACAGCCGUUCAGUACCAAGUCUCAGGGGAAACUUUGAGAUGGCCUUGCAAAGGGUAUGGUAAUAAGCUGACGGACAUGGUCCUAACCACGCAGCCAAGUCCUAAGUCAACAGAUCUUCUGUUGAUAUGGAUGCAGUUCACAGACUAAAUGUCGGUCGGGGAAGAUGUAUUCUUCUCAUAAGAUAUAGUCGGACCUCUCCUUAAUGGGAGCUAGCGGAUGAAGUGAUGCAACACUGGAGCCGCUGGGAACUAAUUUGUAUGCGAAAGUAUAUUGAUUAGUUUUGGAGUACUCGUGGUCG
Summary of the method: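 Fitness was computed with DiMSum as the error-weighted combination of replicate fold changes, kanamycin versus none, each normalised to wild type. The library randomised all eight intron nucleotides of the P1ex region, with the intron placed in the knt kanamycin-resistance gene on pET-22b(+) in E. coli BL21(DE3). Six replicate transformations were grown overnight at 37°C or 30°C on LB agar with or without 25 μg/mL kanamycin, plus 100 μg/mL carbenicillin, 50 μM IPTG and 0.2% rhamnose. Pooled colonies were amplicon-sequenced on an Illumina HiSeq 2500.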

| Sequence | self-splicing fitness (ln) (30 °C) | self-splicing fitness (ln) (37 °C) |
| --- | --- | --- |
| UUAUAGCAAUAUUACGAAAU | -3.75 ± 0.34 | -1.34 ± 0.3 |
| UUAUAGCAAUAUUACGAACG | -0.792 ± 0.17 | -0.293 ± 0.21 |
| UUAUAGCAAUAUUACGACGU | -3.45 ± 0.25 | -1.14 ± 0.16 |
| UUAUAGCAAUAUUACGAGGA | -2.68 ± 0.3 | -1.01 ± 0.23 |
| UUAUAGCAAUAUUACGAUCA | -0.672 ± 0.15 | -0.403 ± 0.17 |
| UUAUAGCAAUAUUACGAUGU | -2.57 ± 0.2 | -1.57 ± 0.23 |
| UUAUAGCAAUAUUACGAUUA | -0.871 ± 0.11 | -0.272 ± 0.13 |
| UUAUAGCAAUAUUACGCAUG | -1.67 ± 0.25 | -0.364 ± 0.23 |
| UUAUAGCAAUAUUACGCGAA | -1.97 ± 0.2 | -1.53 ± 0.34 |
| UUAUAGCAAUAUUACGCGCU | -2.25 ± 0.14 | -1.55 ± 0.13 |
| UUAUAGCAAUAUUACGCGGU | -3.14 ± 0.28 | -1.64 ± 0.28 |
| UUAUAGCAAUAUUACGGAGU | -3.38 ± 0.32 | -2.15 ± 0.3 |
| UUAUAGCAAUAUUACGGCGG | -0.333 ± 0.16 | 0.825 ± 0.2 |
| UUAUAGCAAUAUUACGGGAU | -2.78 ± 0.39 | -3.5 ± 0.42 |
| UUAUAGCAAUAUUACGGGCU | -2 ± 0.33 | -1.3 ± 0.22 |
| UUAUAGCAAUAUUACGUAAU | -3.23 ± 0.31 | -2.11 ± 0.36 |
| UUAUAGCAAUAUUACGUGUC | -4.44 ± 0.36 | -2.71 ± 0.26 |
| UUAUAGCAAUAUUACGUUUG | -2.12 ± 0.15 | -1.14 ± 0.18 |
| UUCAAGCAAUAUUACGAACU | -2.74 ± 0.27 | -1.62 ± 0.25 |

| Sequence | self-splicing fitness (ln) (30 °C) | self-splicing fitness (ln) (37 °C) |
| --- | --- | --- |
| UUCAAGCAAUAUUACGACAG | -1.5 ± 0.11 | -1.1 ± 0.095 |
| UUCAAGCAAUAUUACGAGAC | -3.86 ± 0.23 | -2.23 ± 0.19 |
| UUCAAGCAAUAUUACGAGAG | -1.5 ± 0.11 | -1.34 ± 0.11 |
| UUCAAGCAAUAUUACGAUCG | -1.26 ± 0.1 | -2.3 ± 0.2 |
| UUCAAGCAAUAUUACGAUUG | -3.63 ± 0.35 | -2.24 ± 0.27 |
| UUCAAGCAAUAUUACGCGAC | -2.61 ± 0.24 | -1.91 ± 0.2 |
| UUCAAGCAAUAUUACGCGCG | -1.39 ± 0.082 | -0.634 ± 0.13 |
| UUCAAGCAAUAUUACGCUAA | -1.35 ± 0.2 | -0.551 ± 0.19 |
| UUCAAGCAAUAUUACGCUCG | -3.13 ± 0.33 | -2.15 ± 0.2 |
| UUCAAGCAAUAUUACGGAGG | -4.04 ± 0.27 | -2.58 ± 0.19 |
| UUCAAGCAAUAUUACGGAUA | -1.18 ± 0.14 | -0.384 ± 0.12 |
| UUCAAGCAAUAUUACGGCAC | -2.66 ± 0.4 | -1.11 ± 0.33 |
| UUCAAGCAAUAUUACGGCCA | -1.31 ± 0.13 | -0.977 ± 0.13 |
| UUCAAGCAAUAUUACGGCGA | 0.0413 ± 0.081 | 0.263 ± 0.11 |
| UUCAAGCAAUAUUACGGCUC | -1.68 ± 0.17 | -0.923 ± 0.23 |
| UUCAAGCAAUAUUACGGGCA | -0.666 ± 0.11 | 0.111 ± 0.1 |
| UUCAAGCAAUAUUACGGGGA | -1.49 ± 0.1 | -0.885 ± 0.1 |
| UUCAAGCAAUAUUACGGUAU | -2.84 ± 0.11 | -1.64 ± 0.11 |
